The results in this text go back to paper PMC7356742.

Data set [1] deals with RsuA G127C-Cy5 (Escherichia coli). In words: FRET. The conditions noted are these: 4 mM Mg2+, FRET: 80 mM K-Hepes pH 7.6, 330 mM KCl, 0-20 mM MgCl2, 2 nM RNA folded at 37 C. Filter binding: 80 mM K-Hepes pH 7.6, 50 mM KCl, 4 mM MgCl2, 6 mM …; for binding signal: scale: fold higher affinity than wild type.
Data set [2] concerns RsuA wild type (Escherichia coli). In words: filter binding. The conditions noted are these: 4 mM Mg2+; fit 0-2 uM, bound fraction falls above 2 uM; FRET: 80 mM K-Hepes pH 7.6, 330 mM KCl, 0-20 mM MgCl2, 2 nM RNA folded at 37 C. Filter binding: 80 mM K-Hepes pH 7.6, 50 mM KCl, 4 mM MgCl2, 6 mM ….
Data set [3] deals with RsuAΔN (S4-like domain truncation) (Escherichia coli). In words: filter binding. The conditions noted are these: 4 mM Mg2+; fit 0-15 uM; FRET: 80 mM K-Hepes pH 7.6, 330 mM KCl, 0-20 mM MgCl2, 2 nM RNA folded at 37 C. Filter binding: 80 mM K-Hepes pH 7.6, 50 mM KCl, 4 mM MgCl2, 6 mM ….

In the case of 16S 5'-domain C507G, the binding signal (fold lower Kd than wild type (3.9 nM)) in data set [1] was determined as 390.

For the substance 16S 5'-domain G505C, the binding signal in data set [1] was > 30.

With 16S 5'-domain G505C:G506C, in data set [1], the binding signal is > 30.

Usually Kd stands for the free concentration of one partner at which half of the binding sites on the other are occupied at equilibrium, for simple one-to-one binding. As for 16S 5'-domain rRNA (filter binding), the dissociation constant Kd in data set [2] came to 12 nM; in data set [3], 57 nM.
